In series [1] the target is human type I5E receptor protein (human) (UniProt Q8NFJ6). Put plainly: cell-based or functional assay. The conditions noted are these: scale: times lower level than human type Bv8 peptide.
Series [2] has as its system guinea pig ileum. Put plainly: Experiment on contraction using specimen removed from guinea pig ileum. The conditions noted are these: for EC50: guinea pig ileum specimen, contraction induced by 1 μM acetylcholine taken as 100%, accumulative administration, read-out: EC50 of contraction response calculated from the dose-response curve. Here is the method: Guinea pigs (std: Hartley, 7-8 weeks old, male, weighing about 450 g) weres bled to death by cutting the carotid artery and laparotomized to remove the ileum. The ileum was placed on a glass Petri dish charged with Tyrode solution (composition: 138 mM NaCl, 2.7 mM KCl, 1.8 mM CaCl2, 0.5 mM MgCl2, 1.1 mM NaH2PO4, 11.9 mM NaHCO3 and 5.6 mM glucose), which was bubbled with 95% O2-5% CO2 gas. After connective tissues or fat pieces adhered to the ileum were removed with scissors for surgery and tweezers, the ileum was cut into a size of about 1.5 cm long, which was used as specimen. The specimen was suspended in an organ bath (20 ml) filled with the Tyrode solution maintained at 37° C. and a load of 0.5 g was applied over 30 minutes or longer to stabilize the specimen. Contraction response of the ileum specimen was measured using AMPLIFIER CASE 7747 of NEC Sanei. After determination of the maximum contraction by administration of 1 μM acetylcholine, purified human type Bv8 peptide obtained by the method of REFERENCE EXAMPLE 1 with a modification or snake venom MIT1 was accumulatively administered to assay the contraction response. For dilution of human type Bv8 and MIT1, physiological saline containing 0.05% bovine serum albumin was employed.
The contraction response induced by human type Bv8 and MIT1 was shown by percentage, taking the contraction induced by 1 μM acetylcholine as 100%.

Series [3] concerns PI-3 kinase. The conditions noted are these: cited from earlier work.
The target of series [4] is T1, ZAQ receptor (Homo sapiens, UniProt Q8TCW9).
T1 construct: expressed in transfected cells; host or cells: CHO/dhfr- cells, clone ZAQC-B1 (plasmid pAK-ZAQC)
T1 sequence (Q8TCW9 whole entry): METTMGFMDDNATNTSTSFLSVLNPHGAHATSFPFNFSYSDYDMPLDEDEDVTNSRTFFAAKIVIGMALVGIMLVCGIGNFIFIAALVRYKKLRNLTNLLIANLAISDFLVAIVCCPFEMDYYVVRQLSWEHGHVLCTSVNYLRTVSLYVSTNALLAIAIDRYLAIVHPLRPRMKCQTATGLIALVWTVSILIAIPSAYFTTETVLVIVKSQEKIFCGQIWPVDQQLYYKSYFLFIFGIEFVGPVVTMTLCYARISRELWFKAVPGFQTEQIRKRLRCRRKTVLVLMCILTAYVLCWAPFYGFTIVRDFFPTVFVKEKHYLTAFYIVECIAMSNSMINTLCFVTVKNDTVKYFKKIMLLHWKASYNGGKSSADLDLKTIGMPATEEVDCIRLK
Put plainly: Assay for the ZAQ receptor activating activity (intracellular Ca ion level increasing activity using FLIPR). In kind it is cell-based. Here is the method: The ZAQC-B1 obtained in (2-1) above and the 15E-4 cells obtained in (2-2) above were suspended in a medium (10% d FBS-DMEM), respectively, in 15×10^4 cells/ml and an aliquot of 200 μl was inoculated on a 96-well plate for FLIPR (Black plate clear bottom, Coster, Inc.) using a dispenser (3.0×10^4 cells/200 μl/well). After culturing overnight in a 5% CO2 incubator at 37° C., it was provided for use (hereinafter which was made a cell plate). Twenty milliliters of H/HBSS (9.8 g of Nissui Hanks 2 (Nissui Seiyaku Co., Ltd.), 0.35 g of sodium hydrogencarbonate and 4.77 g of HEPES; the pH was adjusted to 7.4 with 6 M sodium hydroxide solution followed by filter sterilization), 200 μl of 250 mM Probenecid and 200 μl of fetal bovine serum (FBS) were mixed. Also, 2 vials (50 μg) of Fluo 3-AM (Dojin Kagaku Kenkyusho) were dissolved in 40 μl of dimethylsulfoxide and 40 μl of 20% Pluronic acid (Molecular Probes Co., Ltd.). The solution was added to H/HBSS-Probenecid-FBS described above. After thoroughly mixing them, an aliquot of 100 μl was added to the medium-removed cell plate using an 8-channel pipette, followed by incubation in a 5% CO2 incubator at 37° C. for an hour (dye loading). […] By assaying a change in fluorescence intensity with passage of time, the intracellular Ca ion level increasing activity was measured. […]

Series [5] relates to MAP kinase. The conditions noted are these: cited from earlier work.
Series [6] addresses T2, I5E receptor (Homo sapiens, UniProt Q8NFJ6).
T2 construct: expressed in transfected cells; host or cells: CHO/dhfr- cells, clone No. 4 (I5E-4 cells), vector pAKKO1.11
As to the kind of experiment: Assay for the I5E receptor activating activity (intracellular Ca ion level increasing activity using FLIPR). It counts as cell-based. The conditions noted are these: I5E receptor expression CHO cells. An excerpt:
Human I5E receptor cDNA (SEQ ID NO: 6) was cloned by PCR publicly known and incorporated into pAKKO1.11 expression vector. The expression vector was transfected to CHO/dhfr^− cells (American Type Culture Collection) by the method described in (2-1). About 20 colonies of the transfected CHO cells, which grew in 8 to 10 days after the initiation of culture, were selected. The selected cells were inoculated on a 96-well plate in 3×10^4 cells/well, and the reactivity on snake venom MIT1 (SEQ ID NO: 21) was examined by the test method described in (2-3) described hereinafter. No. 4 clone of the 15E-expressing CHO cells showing a good reactivity was selected (hereinafter abbreviated as 15E-4 cells).
The ZAQC-B1 obtained in (2-1) above and the 15E-4 cells obtained in (2-2) above were suspended in a medium (10% d FBS-DMEM), respectively, in 15×10^4 cells/ml and an aliquot of 200 μl was inoculated on a 96-well plate for FLIPR (Black plate clear bottom, Coster, Inc.) using a dispenser (3.0×10^4 cells/200 μl/well). After culturing overnight in a 5% CO2 incubator at 37° C., it was provided for use (hereinafter which was made a cell plate). […] By assaying a change in fluorescence intensity with passage of time, the intracellular Ca ion level increasing activity was measured. […]

For series [7], the system named is ileum, distal colon, proximal colon. The conditions noted are these: cited from earlier work.

T2 sequence (Q8NFJ6 whole entry): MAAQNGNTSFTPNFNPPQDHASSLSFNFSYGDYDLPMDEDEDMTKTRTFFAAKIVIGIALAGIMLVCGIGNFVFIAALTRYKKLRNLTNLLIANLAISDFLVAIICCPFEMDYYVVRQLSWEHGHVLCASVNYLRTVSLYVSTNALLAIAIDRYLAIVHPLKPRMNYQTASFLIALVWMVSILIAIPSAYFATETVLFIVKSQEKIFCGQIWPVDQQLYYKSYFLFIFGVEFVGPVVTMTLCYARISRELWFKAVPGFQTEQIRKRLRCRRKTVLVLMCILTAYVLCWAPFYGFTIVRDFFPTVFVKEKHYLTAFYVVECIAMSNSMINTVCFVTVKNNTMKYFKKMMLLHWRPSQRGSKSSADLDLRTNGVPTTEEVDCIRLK
Sequence of human type I5E receptor protein (human) (Q8NFJ6 whole entry): as above

As for “snake venom Mamba Intestinal Toxin 1 (from UniProt P25687 1-80) (ligand)”, in series [1], the I5E receptor activating activity (intracellular calcium level, FLIPR) came out at 10.

B1: human type Bv8: Human type Bv8 mature peptide (81 amino acid residues, SEQ ID NO: 19) produced in Escherichia coli, … EXAMPLE 1 (protein)
chain: AVITGACDKDSQCGGGMCCAVSIWVKSIRICTPMGKLGDSCHPLTRKVPFFGRRMHHTCPCLPGLACLRTSFNRFICLAQ
In the case of B1, in series [2] (as described in EXAMPLES), the “intestinal tract contractile activity” value is reported as “has an intestinal tract contractile activity”. Besides, in series [2], the concentration for a half-maximal effect (EC50) (usually the concentration at which the effect is half-maximal) is 0.57 nM. For the same molecule, the PI-3 kinase activation result in series [3] is given as “activates”. In addition, the “intracellular Ca ion level increasing activity using FLIPR, compared with CHO cell-derived recombinant preparation” value in series [4] (method of EXAMPLE 2 (2-3), receptor cell line not specified) was “equivalent to that of the CHO cell-derived recombinant preparation”. Further, the MAP kinase activation result in series [5] was “activates”.

B2: human type Bv8 peptide: Human type Bv8 purified from CHO cell culture supernatant (EXAMPLE 3); C-terminal Lys-deficient mature peptide, SEQ ID NO: 22 (protein)
chain: B1 chain
modifications: Human
Turning to B2, the “I5E receptor activating activity (intracellular calcium level)” value in series [6] (FLIPR, FIG. 10) is given as “induced the intracellular calcium level concentration-dependently”. The “ZAQ receptor activating activity (intracellular calcium level)” value in series [4] (ZAQ receptor expression CHO cells, FLIPR, FIG. 9) was “induced the intracellular calcium level concentration-dependently”.

B3: MIT1 (protein)
chain: AVITGACERDLQCGKGTCCAVSLWIKSVRVCTPVGTSGEDCHPASHKIPFSGQRMHHTCPCAPNLACVQTSPKKFKCLSK
Take B3: the degree of contraction/relaxation entry in series [7] (compared with potassium chloride) was “as potent as comparable to 40 mM potassium chloride”. Also, the “contraction or relaxation of intestinal tract” value in series [7] (ileum, distal colon, proximal colon) is given as “induced contraction in the ileum or distal colon, or relaxation in the proximal colon”. Further, the “level from which I5E receptor activating activity is exhibited, lower than that of human type Bv8 peptide” value in series [6] (relative to human type Bv8 peptide) is given as “about 10 times”. Also, the half-maximal effective concentration (EC50) in series [2] is 0.4 nM.

(Values after US20040048314A1, “Novel physiologically active peptide and use thereof” (priority 2001, published 2004).)
